# Laboratory results: the DeepSol protein solubility set
# Experiment: soluble on expression in E. coli; label from the status in PepcDB or PDB records
row,Sequence,soluble on expression in E. coli
1,MDVSMLQSPQKRIKTIQKLAVSKKDVHDFKDIFEMLEEQKEKRNINIIQYDSLDDLSGDWSEYTFFCGNFDSDLFRTLTKHQETQALFIIGASVLKNKLLKNEDLMTLRAARPLYCELMKDVTMKLAAEVPNKRELVDLVHYMGGSVRKDTVSRTNVFIAAKVEAKVQSISLVGVPTMRADWVTECWKHRDDSYFDVMEPCFVDKHRLGVFEGLSLFFHGFKQTEIDDMLRSLENTGGKLAPSPTLATHVVYNPDNDEVETLAVSSNQVHVTKEWFWVSLHRGCCAIEDNFALPTGKLHRKPLESSSVSSPIGKSLRSQNSRSLSSMRDCSVEGPTSLNMTPDYIYSNDDVENSCKSPRQPSKRLRVCMEMVETEKNYLSLLKLVVKFKEALECEISHNEFMSRSDVAMMFGKLDPILELHERIFARLTVMSNEANTLLTVVNGKKNDDKNLDFAQVWIDAKEEMKKAYPQYINSYDTIKRLFDKQDRENSKFHTFCKAKESNPEFHRLKLTDLMVKPVQRLPSVILLLKEMAKKSDSKLKNNAEEAAKAIDEVLKTANKTREKNDNFISHLSKFTDIENVPPILVAANRMFIRELVVSPIASTSPGLQQFAKMKLFLFHDVLIITKIRSEKNTMQRLARHASFASLHSRQRRPYRYIDQIQLNTMRSAFRIRAPDEIAKCLELQQQNGSTKPNVFVWCLIHRDEQGGDIDTVFESNDDEEVRDFLDDIHVKILSDCGRFFYSSDPSDMNEINDAMVSDMTTRYFRNLCGAKPQYGHGSQMNITEWSHNESFMPPPQSQSRMRRAFSNAQLTLATTLGFGRNQSRNNLGQINENTTFLQSPRVSCDPAALANMTSVGGLPGCQSESESTPKRGIRSRLTSTTFLGGRHNILGRNTSMRRQATGFAHSEKELPRSKTSSYRVTDI,not soluble
2,MDVSYLLDSLNDKQREAVAAPRSNLLVLAGAGSGKTRVLVHRIAWLMSVENCSPYSIMAVTFTNKAAAEMRHRIGQLMGTSQGGMWVGTFHGLAHRLLRAHHMDANLPQDFQILDSEDQLRLLKRLIKAMNLDEKQWPPRQAMWYINSQKDEGLRPHHIQSYGNPVEQTWQKVYQAYQEACDRAGLVDFAELLLRAHELWLNKPHILQHYRERFTNILVDEFQDTNNIQYAWIRLLAGDTGKVMIVGDDDQSIYGWRGAQVENIQRFLNDFPGAETIRLEQNYRSTSNILSAANALIENNNGRLGKKLWTDGADGEPISLYCAFNELDEARFVVNRIKTWQDNGGALAECAILYRSNAQSRVLEEALLQASMPYRIYGGMRFFERQEIKDALSYLRLIVNRNDDAAFERVVNTPTRGIGDRTLDVVRQTSRDRQLTLWQACRELLQEKALAGRAASALQRFMELIDALAQETADMPLHVQTDRVIKDSGLRTMYEQEKGEKGQTRIENLEELVTATRQFSYNEEDEDLMPLQAFLSHAALEAGEGQADTWQDAVQLMTLHSAKGLEFPQVFIVGMEEGMFPSQMSLDEGGRLEEERRLAYVGVTRAMQKLTLTYAETRRLYGKEVYHRPSRFIGELPEECVEEVRLRATVSRPVSHQRMGTPMVENDSGYKLGQRVRHAK,soluble
3,MDVTCNIKNGRCEQFCKNSADNKVVCSCTEGYRLAENQKSCEPAVPFPCGRVSVSQTSK,soluble
4,MDVTDKIRPWMKECRLCPRNCGADRMAGQKGFCGTDTEIMVARAALHMWEEPCISGKEGSGAVFFSGCSLGCNFCQNRRISRGQRGKKITQEHLVELFFQLQEQGANNINLVTAGHFLPQVAVALEMAKEQGLHIPVVYNSSGYEKAKTLKMLDGLVDIYLPDFKYMDAVLAKKYSHAQDYPEIAKEALSEMVRQVGEAEFDSRGMMKKGVIVRQLLLPGHVKDAKNVLKYLYETYGDRIYISMMNQYTPMPAMKDDPQLSRKVTDREYERLIDYAISLGLKNGFMQEGETAKESFIPEFDGEGV,not soluble
5,MDVTFLTKNVQINGTQFKILLQNGQGECALIALANVLLISPAHARYAQEISRLVRGKETVTLNELVQTLADMGVQNPNGTDVDKQQLLQILPQLYSGLNINPEFNGSFEDGVEMSIFRLYNVGIVHGWIIDGDNDPNSYEHVSKYSYMGAQKVLVQSYEIQKNNAQFENSEQIQSDAPYLKSFLARSATQLTEYGLTHLREILVERSYAVLFRNDHFCTLYKNNGELFTLVTDPTYRNRKDINWQSLKSVNGSQDSYYTGNFIPTSLERTETTATGQNESYISNPFSDQNTGHVTSNQVNSGASGVQQIEDDEELARRLQEQEDMRAANNMQNGYANNGRNHQRERFERPEKNSKKNKFLPFNGSNKEKKRDKLKKNCVIM,soluble
6,MDVVEVAGSWWAQEREDIIMKYEKGHRAGLPEDKGPKPFRSYNNNVDHLGIVHETELPPLTAREAKQIRREISRKSKWVDMLGDWEKYKSSRKLIDRAYKGMPMNIRGPMWSVLLNTEEMKMKNPGRYQIMKEKGKRSSEHIQRIDRDVSGTLRKHIFFRDRYGTKQRELLHILLAYEEYNPEVGYCRDLSHIAALFLLYLPEEDAFWALVQLLASERHSLQGFHSPNGGTVQGLQDQQEHVVATSQPKTMGHQSASRRRPGVARGHVFATGSLIPGPGMRTLCSSILGPL,not soluble
7,MDWSHYRFRSLWALPAPPARVYAALERVEDYPRWWPQVREVTRLDEDCGVIRIRSLLPYDMTFTARDVRHDTAAGILEITMTGDIDGWARWTVTAGGPGTLARYDQEVDVRKPLLRRFAVPGRPVFRANHALMMRAGQRGLLAHLDGLEHHHHHH,not soluble
8,MDYCCVGRNNNDSVPSEGTLLRVKTLMKMANHPRPGDIIQESLDELNVSLREFARAMEIAPSTASRLLTGKAALTPEMAIKLSVVIGSSPQMWLNLQNAWSLAEAEKTVDVSRLRRLVTQ,soluble
9,MDYDVIANQPVVIDNGSGVIKAGFAGEQQPKVRFANFVGRPKYHRVMAGGLDGDIFIGPKAESNRGLFSIEYPMEHGIVNNWSDMEKIWEYIFGQDQLKIFPEEHPVLLTDAPLNPLKNRERSAEIFFETFNVPALYIQMQAVLSLYATGRTTGVVLDSGDGVTHAVPIVKGFAMKHAIQRMDLAGRDVTEYLRVLLRREGYEFHRSNEFEIVREMKENACYLALDPTKVENNSVKSSYALPDTTKIEISNSLFRAPEVLFKPDLIGTEWPGMAHVVNQSIMKCDVDLRQTLYSNIVLSGGTTLFKGFGDRLLGEMRKIAPADGKIRISASQERNSLTWIGGSIVASLDTFRKMWLGKKEYEDMGASAMHKRFF,not soluble
10,MDYRVLLYYKYTTIDDPELFATEHLAFCKDLELKGRILVSTEGINGTVSGTVEATDKYMEALKNDARFQGITFKVDEAEGHAFKKMHVRPRQEIVALDLEDDVNPRELTGNYLSPKEFREALLSDDTVVIDARNDYEYDLGHFRGAVRPDITRFRDLPDWIKENKEQFMDKKIVTYCTGGIRCEKFSGYLLKEGFEDVSQLEGGIATYGKDPETKGEFWDGKMYVFDERISVEVNHVDKTVVGKEWFDGTPCERYINCSNPECNKQILVSEENEARYLGACSHECAKHENNRYVKKHNISDEEKAKRLENFKELVKLEHHHHHH,not soluble
11,MEAAANRQLIVSFTPYEWKYVRQLFRSRRIEDVKECVIILATWISRTGENTPVAISCSHVLLQAIYAELLSTGMCESERYMAIDDLRSKHGYAIVRFVNYVNEMGQTGATLKNMVHAVKSFGIPKKIVDIRHAITHQNCPDIAELRYATNFCLDWLWKNFWLSDARVAMNSAAATNSSKNPTSSSEFGGQRGREQQYVSSLRAFNTWRVKNRQLTTELEWSEVAELLALKHHILLDSTGFLTCFMRDGHLIQTPGQWKNWKLPVTCSNDNWQIPEEIQAFWEPLFHVMFSLKLGAEIVVAFLWRLREPMIKDMTRHQITAYVRMIVQQFADADVFSDEEWYKVLDHLLPVAKNFSTEFIELVMARCTTLAHKRKKQIRQILNISTKSHVESPSTSSSDTVHTVSDLQKLLKKSSKSVVKSEPVTSNADGNRTGIELCDVAAWAEVPFGMAPGQRIETFTVVLDHHGSDKSRKRRAFDAAITLDED,not soluble
12,MEAASIAVPGAGASLRAQALDALMTPAWADKLAAVAAIDAGAPVGAQQDLAEPAGLPGRPPAPQLVPPSQVRQRSVQSPEGRAALLHALAHIEFNAINLALDAVWRYGGLPDAYYLDWLKVAREEAYHFDLLNRHLSGLGHAYGDFPAHNGLWEMAEKTRADLLARLALVPRTLEARGLDASPLIRDKLAAAGDADGAAILEIILRDEIGHVAIGNHWYKALCAQRGLDPVAQYAQLASRYGAPRLRGPFNLEARRAAGFDEDELRALLQAKLAAALEHHHHHH,soluble
13,MEAEPLETEQDEWRKERMRVLDEWCEIELKGADALKMDVTREPGSPTVAVAPETSLQDLYPLLIATSSSNAPPSATPTDDVTDPEVQVVSRESIDNRSTFNRIIDVCLCRPVKSQMGPKAYTDKTLILKLAQIPYDHENGTHWLLLSDYFNNVSRSLMTSSEYSHVTNPSRVGAHWVTVGFQSATPHTDFRGCGVLGLLQMHTFTQRVPANLLRAIVLLATTEPNDFPLAVVSINITSILLTQLKKGALDNFGNEIEGLYPFFSALHASAMCRFCSIYKSQKCTLANTQTIFSEITRQLEKSPLSLIMLLNPTNDELINTLL,not soluble
14,MEDFNRRAEELDQVEKNVSLGLKKIQDEMDSIQLEVEPDDVEITSTKRGFWEHDITNLSPFPVVCRVRATSPSMFVVNKNVFLLKPMDFFKLMISRKPGQIRSHHLKIDVTQFVDTFNPINLLDYFIASNPFKTFVVRYHGAPRYWSDALEMNSWLTGEQLNEQWEKEMKKTSQEKKSSLETSEVSSVNEFVDAEEDNFPVQRAAMNITNVLTVASQVPDESNKNEPDSDIDSVVSGTIDSELANLKI,not soluble
15,MEDHKPRPCQPRPWLKEQKCPTGFWCHEGQSEHSFYCCPSSRKFANRCHLPPAVGYGKQRMRRFYFDWKTDACHELQYSGIGGNENIFMDYEQCERVCRGAGEPPILLPSNMKVLPKETTKDFKKMEKPEMEKKMVYPKEVAAPVSLQPPSLRTTKPADVHESFYTVSPQTSSVPHPTTLSTTHSKQKPTTTEAEIPEVFDPNPCSLSPDKGFPGSVTVNMWYYDPTSTTCSPFMYLGKGGNSNRFETSEECLETCGIGKPTRKSCELPPAIGNGPFNIPRYYFDRVTKKCERFFYSGRDGNDNRFYKKNKCERLCLRKKPKKKENIYEFTTTPSTPSVIYESTPLRIIQNLVPNYVTPTPTQSRITVEPWIERFTEKSSIYEYSTTPHPTLIYEPHGETLPTLNPPTTTTPSIVDHVFSSLMNTQQQKLVEFVHVPTDQKTTGETPRKFSSHETIPFGQVEQQPIPMNPFGSAKPTVNKFGMKVEPYQTTDYMLPPGYPSSSIYLPQPAYPEVKPNSSVILSSTQSQNNTSPQTIPASASVTNSATSTVVDTSSQFQIPYVSSPASATSNIFVGPIPPPSNSGSSSQAPDSSQSATNSSNSGSGESKIPNVGPIAPPSQLSQVGVFVTGSTSTSPVVSINFIKTENSVQQPTHYIVPSQSSPPPDPYVISNPIPTLSPTAGTPSFNIYPYPSLPPPTTTISPLPTLLPPNISYVTSPPDNNDSPCSRSIYGDATIMCENRQEICPMGTFCQIGQGQSICCPIMDEPPCEQAIEEGVGNVLLRRWYFDPATRLCQPFYYKGFKGNQNNFQSFDSCSRACGATNVCSGGSPQMSVHTHLLSCNFESDCPYSHDCIQSTPHNLCCPKTSHLVPESIPAPPFEPVQMPIPAPPAQVSQPQEQSSNMVIDFVPATHASNNLCGQPIDVGFGVLSEHRWAYSAGQCTSFLYSGHGGNMNNFLTRNDCMKTCQSPMPPPSSQCSQPAASGQGDQYLSRYFFSPEYRQCLHFIYSGEGGNQNNFDSLTDCLETCVANGIKFSSLANSPMSAVPPPPPTLMPSPPVTSSPFTFVPRNMCPQGDPLITVDGTPIQCDPSKAAKCPGDHVCTPRGNEAYCCPSPMNFCLQSRPPISVCSGPDFEPVREIRFTYDPLADRCVRFSFQNCRGAAFSPTGSLNNFVSNSQCNRLCCNQGYNLVYKRRLLMAMNDDPIVEDD,not soluble
16,MEDHSSSIAVHKLDGDLLLRTAEIGDADMIAAYFQSNRDYLKPFEPKREEAFFSVNGWLQKLIKLNELHRMGLGYYCLLIHVDT,not soluble
